Measurements: patent US20170369576A1 (UBI US, published 2017)
“And” between values parts separate entries of the source, which are not always exact repeats. Identical values can stand only once.

Columns and labels:
[1] = target: T1, human CD4, membrane-bound on cells (HPB-ALL cells, blood/PBMC CD4+ T cells, assay target cells) (human, UniProt P01730 26-458); test: FACS direct binding to HPB-ALL cells, on ice 1 h, goat F(ab)2 anti-huIgG Fc-FITC; EC50 by % MFI, exp. 1
T1 construct: whole, on cells; Target on human HPB-ALL T-leukemic cells, human blood CD4+ T lymphocytes and CD4+ indicator cells of the neutralisation assays; also called CD4 receptor; surface CD4
Method: (§1) On V-bottomed microplates, aliquots of 2×10⁵ cells in 0.1 mL per well were added, centrifuged, and liquid discarded. […] This step was repeated one more time. The cells from the three incubations (passages) were investigated. […] The cells were washed once and the liquid discarded after centrifugation. To each well, aliquots of 200 μL of binding buffer were added and transferred to microdilution tubes for flow cytometric analysis. The binding intensity (mean fluorescence intensity, MFI), based on an inlet of 5,000 cells per sample, was read on FACS.
(§2) The absolute MFI values were also normalized to % MFI for purpose of between-passage comparison.

[2] = target: T1, human CD4, membrane-bound on cells …; test: FACS, fresh blood CD4+ T cells of subject M2; free CD4 sites left by dB4 detected by dB4C7-Alexa (250 ng/mL)
[3] = target: T1, human CD4, membrane-bound on cells …; test: FACS, fresh blood CD4+ T cells of subject M1; free CD4 sites left by dB4 detected by dB4C7-Alexa (250 ng/mL)
[4] = target: T1, human CD4, membrane-bound on cells …; test: FACS, fresh blood CD4+ T cells, mean of six subjects; free CD4 sites left by dB4 detected by dB4C7-Alexa (250 ng/mL)
[5] = target: T1, human CD4, membrane-bound on cells …; test: FACS, fresh blood CD4+ T cells of subject M2; bound dB4 detected by goat anti-hIgG-FITC
From the text: (§3) The samples were calibrated with reference beads for fluorescence reading.

[6] = target: T1, human CD4, membrane-bound on cells …; test: FACS, fresh blood CD4+ T cells of subject M1; bound dB4 detected by goat anti-hIgG-FITC
From the text: as §3

[7] = target: T1, human CD4, membrane-bound on cells …; test: FACS direct binding to HPB-ALL cells, on ice 1 h, goat F(ab)2 anti-huIgG Fc-FITC; EC50 by % MFI, exp. 2
Method: as §1, §2

[8] = target: T2, baboon CD4 on CD4 positive T cells (baboon (Papio species), UniProt A0A096MWA4 26-457); test: binding to baboon CD4 positive T cells (FIG. 21)
T2 construct: also called baboon CD4+ T cells

[9] = target: T1, human CD4, membrane-bound on cells …; test: FACS, fresh blood CD4+ T cells of subject M3; free CD4 sites left by dB4 detected by dB4C7-Alexa (250 ng/mL)
[10] = target: T1, human CD4, membrane-bound on cells …; test: FACS, fresh blood CD4+ T cells of subject F3; free CD4 sites left by dB4 detected by dB4C7-Alexa (250 ng/mL)
[11] = target: T1, human CD4, membrane-bound on cells …; test: saturation binding to HPB-ALL cells on ice 1 h; free antibody by ELISA, bound by subtraction, curve fit; exp. 2
Method: (§4) The resultant saturating free-vs.-bound concentration profiles were analyzed on SigmaPlot by curve-fitting based on the equation, [B]=Bmax·{[F]/([F]+Kd)}, where the respective [B] and [F] stand for the bound and free concentrations.
(§5) The binding study was conducted at cold and/or under 0.05% azide to avoid a potential endocytosis of the ligand-receptor complexes. Incubation at room temperature or 37° C. could allow a reaction plateau to be reached sooner. […] The supernatants were collected for determination by ELISA of the free drug concentrations, and the bound fractions were obtained by subtraction from the total.

[12] = target: T1, human CD4, membrane-bound on cells …; test: comparison of IC50 values of FACS competition (HPB-ALL) and ELISA competition (sCD4/p2704a)
Method: On V-bottomed microplates, aliquots of 2×10⁵ cells in 0.1 mL per well were added, centrifuged, and liquid discarded. […] The cells were washed once and the liquid discarded after centrifugation. To each well, aliquots of 200 μL of binding buffer were added and transferred to microdilution tubes for flow cytometric analysis. The binding intensity (mean fluorescence intensity, MFI), based on an inlet of 5,000 cells per sample, was read on FACS.

[13] = target: T1, human CD4, membrane-bound on cells …; test: FACS direct binding to HPB-ALL cells, on ice 1 h, goat F(ab)2 anti-huIgG Fc-FITC; EC50 by MFI, exp. 3
Method: as §1, §2

[14] = target: T1, human CD4, membrane-bound on cells …; test: saturation binding to HPB-ALL cells on ice 1 h; free antibody by ELISA, bound by subtraction, curve fit; exp. 1
Method: as §4, §5

[15] = target: T1, human CD4, membrane-bound on cells …; test: FACS, fresh blood CD4+ T cells of subject F1; bound dB4 detected by goat anti-hIgG-FITC
From the text: as §3

T2 sequence (A0A096MWA4 entry or part of it limits assumed, form in doubt): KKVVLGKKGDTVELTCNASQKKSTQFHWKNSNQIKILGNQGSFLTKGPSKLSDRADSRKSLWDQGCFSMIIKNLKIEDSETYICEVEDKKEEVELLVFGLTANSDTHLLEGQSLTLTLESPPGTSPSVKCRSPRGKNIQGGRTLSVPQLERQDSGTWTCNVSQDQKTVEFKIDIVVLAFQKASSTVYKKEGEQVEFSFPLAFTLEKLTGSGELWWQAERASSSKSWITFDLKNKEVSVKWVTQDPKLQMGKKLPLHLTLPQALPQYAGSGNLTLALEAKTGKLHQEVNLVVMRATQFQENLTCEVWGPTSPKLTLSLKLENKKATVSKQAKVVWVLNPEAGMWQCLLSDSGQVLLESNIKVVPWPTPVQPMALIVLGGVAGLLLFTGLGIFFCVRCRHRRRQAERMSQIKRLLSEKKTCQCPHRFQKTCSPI

B1: mAb dB4C7 (human deimmunized, Fc-aglycosylated IgG1 derived from murine mAb B4, expressed by clone 7) (antibody, V domains shown)
VH: QVQLVQSGPELKKPGASVKVSCKASGYTFTDYVIHWVKQATGQGLEWIGEIYPGSGSAYSNAKFKDRVTMTADKSSNTAYMELSSLTSDDTAVYFCARRGNGTGFAYWGQGTLVTVSS
VL: DIVLTQSPASLAVSLGQRATITCKAGQSVDYDGDSYMNWYQQKPGQPPKLLIYVASNLESGIPARFSGSGSGTDFTLNIHPVEENDAATYYCQQSYKDPLTFGQGTKLEIKR
modifications: N-glycosylated at Asn101 in the Fv; Fc N-glycosylation site removed (N298H)
notes: treated as one molecule; also called deimmunized B4
EC50 [1]: 42.4 ng/mL | EC50 [2]: 4.6 ng/mL | EC50 [3]: 4.8 ng/mL | EC50 [4]: 4.7 ng/mL | EC50 [5]: 4.2 ng/mL | EC50 [6]: 3.7 ng/mL | EC50 [7]: 45.7 ng/mL | EC50 [8]: 290 ng/mL | EC50 [9]: 3.3 ng/mL | EC50 [10]: 4.3 ng/mL | Kd [11]: 0.0121 µg/mL and 0.081 nM | fold binding affinity, CD4-positive T cells against sCD4 [12]: > 40 fold | EC50 [13]: 40.7 ng/mL | Kd [14]: 0.057 nM and 0.0086 µg/mL | EC50 [15]: 4.7 ng/mL
